Data: patent publication US7109317

Molecular target: endogenous calcineurin (human) (UniProt P63098)
Experiment: cell-based or functional assay

endogenous calcineurin (human), sequence (P63098 2-170): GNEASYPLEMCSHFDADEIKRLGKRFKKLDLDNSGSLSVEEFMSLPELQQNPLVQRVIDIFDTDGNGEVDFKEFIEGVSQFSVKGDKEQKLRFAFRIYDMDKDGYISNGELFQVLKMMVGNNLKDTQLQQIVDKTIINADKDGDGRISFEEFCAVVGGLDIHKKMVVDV
FKBP12, sequence (P62942 2-108 limits assumed): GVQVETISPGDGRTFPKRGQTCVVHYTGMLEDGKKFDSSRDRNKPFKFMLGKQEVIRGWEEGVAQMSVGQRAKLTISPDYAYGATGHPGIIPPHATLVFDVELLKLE

suppression of PMA/ionomycin-induced activation of an NFAT-SEAP reporter, C40-phenyl-FK506 against FK506: 30 fold
Substance: FKBP12 (from UniProt P62942 2-108)
